Columns and labels:
[1] = Circular dichroism (CD) spectroscopy, variable temperature measurement; format: physicochemical; settings: 1 mM EDTA, pH 7.2; for Tm (° C.): 0.5 mg/ml in 20 mM HEPES, VTM 20 to 90° C. at 221 nm; for refolding, CD spectra before and after heating to 90° C.: 20 mM HEPES
Experimental: Circular dichroism (CD) spectroscopy analysis: Two purified Z variants with a C-terminal cysteine, Z15168-Cys (SEQ ID NO:809) and Z15169-Cys (SEQ ID NO:810), were diluted to 0.5 mg/ml in 20 mM HEPES, 1 mM EDTA, pH 7.2. For each diluted Z variant, a CD spectrum at 250-195 nm was obtained at 20° C. In addition, a variable temperature measurement (VTM) was performed to determine the melting temperature (Tm). In the VTM, the absorbance was measured at 221 nm while the temperature was raised from 20 to 90° C., with a temperature slope of 5° C./min. A new CD spectrum was obtained at 20° C. after the heating procedure in order to study the refolding ability of the Z variants. The CD measurements were performed on a Jasco J-810 spectropolarimeter (Jasco Scandinavia AB) using a cell with an optical path length of 1 mm.
Circular dichroism (CD) spectroscopy analysis: A subset of the purified Hiss-tagged Z variants were analyzed by CD spectroscopy as described in Example 3, but with the exceptions that the analysis buffer was PBS and that the temperature was raised to 80° C. in the VTM.

[2] = system: MDA-MB-231 cells co-cultivated with PBMC; assay: Co-culture of MDA-MB-231 and PBMC (mixed lymphocyte assay); format: cell-based; settings: six days co-culture with PBMC; 200-0.064 nM
Experimental: Co-culture of MDA-MB-231 and PBMC: A mixed lymphocyte assay was used to analyze if the Ipi-based complexes could affect proliferation or the cytotoxic effect of T-cells and thereby increase the elimination of cancer cells. Herein, peripheral blood mononuclear cells (PBMC) and MDA-MB-231 cells were co-cultivated for six days and the number of T-cells and cancer cells were assessed. 20000 MDA-MB-231 cells, cultivated in DMEM containing 10% FBS, were pipetted per well of a flat-bottomed 96-well plate and were left to adhere to the bottom of the well by incubation at 37° C. in a humidified 5% CO2 atmosphere. Day 2 of the experiment, serial dilutions (200-0.064 nM) of the Ipi-based complexes were prepared in a separate plate using RPM11640 with L-glut (Lonza) supplemented with 10% FCS, and 1% Pen-Strep (Lonza, cat. no. DE17-603E). The DMEM medium was discarded from the MDA-MB-231 cells and 100 μl of the diluted complexes were added. PBMC were prepared form a buffy coat using Ficoll Paque PLUS (GE Healthcare, cat no. 17-1440-02). In brief, the buffy coat was diluted 2× in PBS. […] The cells were counted and adjusted to 1 million cells per ml in supplemented RPMI medium. […] At day 7 of the experiment, the number of MDA-MD-231 cells and CD3+ T-cells were counted by FACS. […]

[3] = system: PD-L1 expressing MDA-MB-231 cells; assay: Cell binding analysis by FACS, MDA-MB-231 cells; format: cell-based; settings: 0.625 μg/ml complex or antibody (anti-PD-L1 antibody 1 μg/ml), negative control 69
Experimental: Cells incubated with buffer alone were used as negative controls. The cells were incubated for 1 h at 8° C. in the dark, washed twice with 100 μl staining buffer, and resuspended in 100 μl of staining buffer containing 2.5 μg/ml of a goat-anti-human IgG-Alexa488 (Molecular Probes, cat. no. A11013) or, for cells stained with the positive control antibody, goat anti-mouse IgG-Alexa647 antibody (Life Technologies, cat. No. A21236). The cells were incubated for 1 h at 8° C. in the dark, washed twice with 100 μl staining buffer and resuspended in 300 μl of staining buffer. Data from 10,000 cells were obtained using a FACS Calibur ([…]) and the data was analyzed using Flowing software 2.5.0 (Turku University). Mean fluorescence intensity (MFI) was used as a read out of binding capacity.

Row | Substance | Tm (° C.) [1] [°C] | refolding, CD spectra before and after heating to 90° C. [1] | number of MDA-MB231 cells [2] | MFI [3]
1 | Z15168-Cys: Z13091 mutated to start with AE instead of VD, with C-terminal addition of VDC | 50 | Reversible folding | – | –
2 | ipilimumab [reference compound] | – | – | did not induce a concentration dependent decrease of the cancer cells | –
3 | Z15169-Cys: Z13156 mutated to start with AE instead of VD, with C-terminal addition of VDC | 58 | Reversible folding | – | –
4 | Lam: control antibody having the same CDR sequences and specificity as PD-1 targeting pembrolizumab; SEQ ID NO:815 and 816 | – | – | – | 62
